Experiments:
Format in all cases: cell-based
bovine smooth muscle = experiment: Proliferation of bovine smooth muscle cells (cell counting)
Procedure: (§1) Bovine aorta endothelial cells or bovine smooth muscle at an early passage were cultured in DMEM+10% FCS. Cells were then kept for 16 hours in DMEM in absence of FCS, and plated in 6 cm wells of 6-well plates (about 50 000 cells per well). Cells were then cultured, in triplicate, in the presence of DMEM alone, DMEM+10% FCS, or DMEM+different concentrations of HMGB1. At 24 hours intervals cells were counted under the microscope.

[1] = test system: Bovine aorta endothelial cells; experiment: Proliferation of bovine aorta endothelial cells (cell counting); settings: DMEM + different concentrations of HMGB1, no FCS; cells counted at 24 hours intervals; FIG. 1
Procedure: as §1

3T3 mouse fibroblasts = experiment: Proliferation of 3T3 mouse fibroblasts in similar conditions; settings: data not shown

B1: HMGB1: HMGB1 protein, released after mechanical injury of cells; induces smooth muscle cell and endothelial cell proliferation (protein, UniProt P09429 1-215, looked up)
High mobility group protein B1: MGKGDPKKPRGKMSSYAFFVQTCREEHKKKHPDASVNFSEFSKKCSERWKTMSAKEKGKFEDMAKADKARYEREMKTYIPPKGETKKKFKDPNAPKRPPSAFFLFCSEYRPKIKGEHPGLSIGDVAKKLGEMWNNTAADDKQPYEKKAAKLKEKYEKDIAAYRAKGKPDAAKKGVVKAEKSKKKKEEEEDEEDEEDEEEEEDEEDEDEEEDDDDE
- cell division / proliferation of BSMC (bovine smooth muscle; DMEM + different concentrations of HMGB1, no FCS, single addition, cells counted at 24 hours intervals, FIG. 1): a couple of rounds of division in BSMC, followed by quiescence
- cell proliferation of BSMC on repeated addition (bovine smooth muscle; repeated addition of HMGB1 every 24 hours, data not shown): keep proliferating
- cell division / proliferation of BAEC [1]: keep dividing
- proliferation of 3T3 mouse fibroblasts (3T3 mouse fibroblasts): does not cause the proliferation

Source: patent US20070141060A1, “Hmgb1 protein inhibitors for the regulation of smooth muscle cells and endothelial cells profileration” (BIO3 RESEARCH SRL, priority 2004, published 2007)
